From patent US20060210567A1 (AstraZeneca / MedImmune, published 2006)

target: T1, human PD-1 fusion protein (human, UniProt Q15116 25-170); assay: IgG titrated; inhibition of biotinylated human PD-L1 fusion binding to plate-bound human PD-1 fusion
T1 construct: also called Soluble PD-1 fusion protein; human PD-1/IgG chimera; not shown: fusion partner (IgG part of the chimera)
T1 sequence (Q15116 other isoform, or with tags, fused parts or gaps): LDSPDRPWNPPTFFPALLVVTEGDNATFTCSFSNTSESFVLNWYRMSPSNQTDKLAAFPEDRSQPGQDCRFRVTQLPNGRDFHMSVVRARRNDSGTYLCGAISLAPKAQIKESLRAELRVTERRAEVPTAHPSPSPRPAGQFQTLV

| IC50 | Binder |
| --- | --- |
| 2.5 nM | PD1-17 IgG (antibody, V domains shown, also called anti-PD-1 antibody PD1-17) VH: QVQLQESGPGVVKPSGTLSLTCAISGGSIGSGGSIRSTRWWSWVRQSPGKGLEWIGEIYHSGSTNYNPSLKSRVTISLDKSRNHFSLRLNSVTAADTAVYYCARQDYGDSGDWYFDLWGKGTMVTVSS VL: NFMLTQPHSVSESPGKTVTISCTRSSGSIASNSVQWYQQRPGSSPTTVIYEDNQRPSGVPDRFSGSIDSSSNSASLTVSGLKTEDEADYYCQSSDSSAVVFGSGTKLTVL |
| 1.4 nM | PD1-28 IgG (antibody, V domains shown) VH: EVQLVQSGAEVKKPGASVKVSCKASGYRFTSYGISWVRQAPGQGLEWMGWISAYNGNTNYAQKLQGRVTMTTDTSTNTAYMELRSLRSDDTAVYYCARDADYSSGSGYWGQGTLVTVSS VL: SYELTQPPSVSVSPGQTARITCSGDALPKQYAYWYQQKPGQAPVMVIYKDTERPSGIPERFSGSSSGTKVTLTISGVQAEDEADYYCQSADNSITYRVFGGGTKVTVL |
| 1.8 nM | PD1-33 IgG (antibody, V domains shown) VH: QVQLVQSGAEVKKPGASVRVSCKASGYTLTSYYIHWVRQAPGQGLEWMGIINPRGATISYAQKFQGRVTMTRDTSTSTVYMELRNLKSEDTALYYCATAGIYGFDFDYWGRGTLVTVSS VL: QSALTQPASVSGSPGQSITISCTGTSNDVGGYNYVSWYQHHPGKAPKLIIYDVTNRPSGVSDRFSGSKSGNTASLTISGLLAEDEGDYYCSSYTIVTNFEVLFGGGTKLTV |
| 2.3 nM | PD1-35 IgG (antibody, V domains shown, also called PD-35) VH: QVQLQESGPGLVKPSQTLSLTCTVSGGSISSGAYYWSWIRQHPGKGLEWIGYIYYNGNTYYNPSLRSLVTISVDASKNQFSLKLSSVTAADTAVYYCARASDYVWGGYRYMDAFDIWGRGTLITVSS VL: not shown |

target: T1, human PD-1 fusion protein; assay: purified scFv titrated; inhibition of biotinylated human PD-L1 fusion binding to plate-bound human PD-1 fusion
Protocol: ScFv production was induced by addition of 1 mM IPTG to exponentially growing cultures and incubation overnight at 30° C. Crude scFv-containing periplasmic extracts were obtained by subjecting the bacterial pellets from the overnight induction to osmotic shock. Pellets were resuspended in 20% (w/v) sucrose, 50 mM Tris-HCl, pH 7.5, 1 mM EDTA and cooled on ice for 30 minutes. Cellular debris was removed by centrifugation, and the scFv was purified by chromatography and buffer-exchanged into PBS. Purified scFv's (PD1-17, PD1-28, PD1-33, and PD1-35) were tested for the ability to inhibit the binding of biotinylated human PD-L1 fusion protein to human PD-1 fusion protein immobilized on plastic in a 96 well microtiter plate assay. Binding of biotinylated PD-L1 fusion protein was detected with AMDEX-alkaline phosphatase, and the signal generated was measured by reading the absorbance at 405 nm using a microtiter plate reader. Data was expressed as a percentage of the total binding and a titration of scFv concentrations was tested to establish clone potency as calculated IC₅₀ values.

| IC50 | Binder |
| --- | --- |
| 726 nM | PD1-17 scFv (scFv, V domains shown, not shown: scFv linker and domain order) VH: QVQLQESGPGVVKPSGTLSLTCAISGGSIGSGGSIRSTRWWSWVRQSPGKGLEWIGEIYHSGSTNYNPSLKSRVTISLDKSRNHFSLRLNSVTAADTAVYYCARQDYGDSGDWYFDLWGKGTMVTVSS VL: NFMLTQPHSVSESPGKTVTISCTRSSGSIASNSVQWYQQRPGSSPTTVIYEDNQRPSGVPDRFSGSIDSSSNSASLTVSGLKTEDEADYYCQSSDSSAVVFGSGTKLTVL |
| 560 nM | PD1-28 scFv (scFv, V domains shown, not shown: scFv linker and domain order) VH: EVQLVQSGAEVKKPGASVKVSCKASGYRFTSYGISWVRQAPGQGLEWMGWISAYNGNTNYAQKLQGRVTMTTDTSTNTAYMELRSLRSDDTAVYYCARDADYSSGSGYWGQGTLVTVSS VL: SYELTQPPSVSVSPGQTARITCSGDALPKQYAYWYQQKPGQAPVMVIYKDTERPSGIPERFSGSSSGTKVTLTISGVQAEDEADYYCQSADNSITYRVFGGGTKVTVL |
